Changes are numbered by the printed parent chain. Names and notes keep the numbering of the source. Where two headings read alike, the source gives them in different places.
B1: native streptokinase nSK (1-414) ATCC 12449 (SEQ ID NO 1) (other)
chain: IAGPEWLLDRPSVNNSQLVVSVAGTVEGTNQDISLKFFEIDLTSRPAHGGKTEQGLSPKSKPFATDSGAMSHKLEKADLLKAIQEQLIANVHSNDDYFEVIDFASDATITDRNGKVYFADKDGSVTLPTQPVQEFLLSGHVRVRPYKEKPIQNQAKSVDVEYTVQFTPLNPDDDFRPGLKDTKLLKTLAIGDTITSQELLAQAQSILNKNHPGYTIYERDSSIVTHDNDIFRTILPMDQEFTYRVKNREQAYRINKKSGLNEEINNTDLISEKYYVLKKGEKPYDPFDRSHLKLFTIKYVDVDTNELLKSEQLLTASERNLDFRDLYDPRDKAKLLYNNLDAFGIMDYTLTGKVEDNHDDTNRIITVYMGKRPEGENASYHLAYDKDRYTEEEREVYSYLRYTGTPIPDNPNDK
B2: PEGylated SK L260C (SEQ ID NO 50) (other)
chain: B1 chain with L260C
modifications: PEG (thiol-reactive methoxy-PEG maleimide) on Cys 260
B3: PEGylated SK L179C (SEQ ID NO 41) (other)
chain: B1 chain with L179C
modifications: PEG (thiol-reactive methoxy-PEG maleimide) on Cys 179
B4: PEGylated SK D173C (SEQ ID NO 39) (other)
chain: B1 chain with D173C
modifications: PEG (thiol-reactive methoxy-PEG maleimide) on Cys 173
B5: PEGylated SK S105C (SEQ ID NO 33) (other)
chain: B1 chain with S105C
modifications: PEG (thiol-reactive methoxy-PEG maleimide) on Cys 105
B6: PEGylated SK N255C (SEQ ID NO 46) (other)
chain: B1 chain with N255C
modifications: PEG (thiol-reactive methoxy-PEG maleimide) on Cys 255
B7: PEGylated SK D96C (SEQ ID NO 31) (other)
chain: B1 chain with D96C
modifications: PEG (thiol-reactive methoxy-PEG maleimide) on Cys 96
B8: PEGylated SK K121C (SEQ ID NO 35) (other)
chain: B1 chain with K121C
modifications: PEG (thiol-reactive methoxy-PEG maleimide) on Cys 121
B9: PEGylated SK D102C (SEQ ID NO 32) (other)
chain: B1 chain with D102C
modifications: PEG (thiol-reactive methoxy-PEG maleimide) on Cys 102
B10: PEGylated SK Ser 258 Cys (SEQ ID NO 49) (other)
chain: B1 chain with S258C
modifications: PEG (thiol-reactive methoxy-PEG maleimide) on Cys 258
B11: PEGylated SK Lys 257 Cys (SEQ ID NO 48) (other)
chain: B1 chain with K257C
modifications: PEG (thiol-reactive methoxy-PEG maleimide) on Cys 257
B12: PEGylated SK D95C (SEQ ID NO 30) (other)
chain: B1 chain with D95C
modifications: PEG (thiol-reactive methoxy-PEG maleimide) on Cys 95
B13: bi-pegylated NC 1-383 (SEQ ID NO 493), Cys at N - 1 and at C + 1 position in SK (1-383, G3) (other)
chain: CIAGPEWLLDRPSVNNSQLVVSVAGTVEGTNQDISLKFFEIDLTSRPAHGGKTEQGLSPKSKPFATDSGAMSHKLEKADLLKAIQEQLIANVHSNDDYFEVIDFASDATITDRNGKVYFADKDGSVTLPTQPVQEFLLSGHVRVRPYKEKPIQNQAKSVDVEYTVQFTPLNPDDDFRPGLKDTKLLKTLAIGDTITSQELLAQAQSILNKNHPGYTIYERDSSIVTHDNDIFRTILPMDQEFTYRVKNREQAYRINKKSGLNEEINNTDLISEKYYVLKKGEKPYDPFDRSHLKLFTIKYVDVDTNELLKSEQLLTASERNLDFRDLYDPRDKAKLLYNNLDAFGIMDYTLTGKVEDNHDDTNRIITVYMGKRPEGENASYHLAGGGC
modifications: PEG on the Cys at N - 1 and on the C-terminal Cys placed after three glycine residues
B14: PEGylated SK N-Cys (SEQ ID NO 489), Cys at N - 1 position in SK (other)
chain: CIAGPEWLLDRPSVNNSQLVVSVAGTVEGTNQDISLKFFEIDLTSRPAHGGKTEQGLSPKSKPFATDSGAMSHKLEKADLLKAIQEQLIANVHSNDDYFEVIDFASDATITDRNGKVYFADKDGSVTLPTQPVQEFLLSGHVRVRPYKEKPIQNQAKSVDVEYTVQFTPLNPDDDFRPGLKDTKLLKTLAIGDTITSQELLAQAQSILNKNHPGYTIYERDSSIVTHDNDIFRTILPMDQEFTYRVKNREQAYRINKKSGLNEEINNTDLISEKYYVLKKGEKPYDPFDRSHLKLFTIKYVDVDTNELLKSEQLLTASERNLDFRDLYDPRDKAKLLYNNLDAFGIMDYTLTGKVEDNHDDTNRIITVYMGKRPEGENASYHLAYDKDRYTEEEREVYSYLRYTGTPIPDNPNDK
modifications: PEG (thiol-reactive methoxy-PEG maleimide) on the Cys at N - 1 position
B15: bi-pegylated NC 1-414 (SEQ ID NO 491), Cys at N - 1 and at C + 1 position in SK (other)
chain: CIAGPEWLLDRPSVNNSQLVVSVAGTVEGTNQDISLKFFEIDLTSRPAHGGKTEQGLSPKSKPFATDSGAMSHKLEKADLLKAIQEQLIANVHSNDDYFEVIDFASDATITDRNGKVYFADKDGSVTLPTQPVQEFLLSGHVRVRPYKEKPIQNQAKSVDVEYTVQFTPLNPDDDFRPGLKDTKLLKTLAIGDTITSQELLAQAQSILNKNHPGYTIYERDSSIVTHDNDIFRTILPMDQEFTYRVKNREQAYRINKKSGLNEEINNTDLISEKYYVLKKGEKPYDPFDRSHLKLFTIKYVDVDTNELLKSEQLLTASERNLDFRDLYDPRDKAKLLYNNLDAFGIMDYTLTGKVEDNHDDTNRIITVYMGKRPEGENASYHLAYDKDRYTEEEREVYSYLRYTGTPIPDNPNDKC
modifications: PEG (methoxy-PEG maleimide, 20 KDa) on the Cys at N - 1 and on the Cys at C + 1
B16: PEGylated SK C-Cys (SEQ ID NO 490), Cys at C + 1 position in SK (other)
chain: IAGPEWLLDRPSVNNSQLVVSVAGTVEGTNQDISLKFFEIDLTSRPAHGGKTEQGLSPKSKPFATDSGAMSHKLEKADLLKAIQEQLIANVHSNDDYFEVIDFASDATITDRNGKVYFADKDGSVTLPTQPVQEFLLSGHVRVRPYKEKPIQNQAKSVDVEYTVQFTPLNPDDDFRPGLKDTKLLKTLAIGDTITSQELLAQAQSILNKNHPGYTIYERDSSIVTHDNDIFRTILPMDQEFTYRVKNREQAYRINKKSGLNEEINNTDLISEKYYVLKKGEKPYDPFDRSHLKLFTIKYVDVDTNELLKSEQLLTASERNLDFRDLYDPRDKAKLLYNNLDAFGIMDYTLTGKVEDNHDDTNRIITVYMGKRPEGENASYHLAYDKDRYTEEEREVYSYLRYTGTPIPDNPNDKC
modifications: PEG (thiol-reactive methoxy-PEG maleimide) on the Cys at C + 1 position

Key:
Test in all cases: cell-based or functional assay
[1] = biological target: human plasminogen (HPG) (human) (UniProt P00747)
[2] = biological target: T1, human plasminogen (HPG) (human, UniProt P00747 97-810)
[3] = biological target: T1, human plasminogen (HPG); remark: listed apart in the source

T1 sequence (P00747 97-810): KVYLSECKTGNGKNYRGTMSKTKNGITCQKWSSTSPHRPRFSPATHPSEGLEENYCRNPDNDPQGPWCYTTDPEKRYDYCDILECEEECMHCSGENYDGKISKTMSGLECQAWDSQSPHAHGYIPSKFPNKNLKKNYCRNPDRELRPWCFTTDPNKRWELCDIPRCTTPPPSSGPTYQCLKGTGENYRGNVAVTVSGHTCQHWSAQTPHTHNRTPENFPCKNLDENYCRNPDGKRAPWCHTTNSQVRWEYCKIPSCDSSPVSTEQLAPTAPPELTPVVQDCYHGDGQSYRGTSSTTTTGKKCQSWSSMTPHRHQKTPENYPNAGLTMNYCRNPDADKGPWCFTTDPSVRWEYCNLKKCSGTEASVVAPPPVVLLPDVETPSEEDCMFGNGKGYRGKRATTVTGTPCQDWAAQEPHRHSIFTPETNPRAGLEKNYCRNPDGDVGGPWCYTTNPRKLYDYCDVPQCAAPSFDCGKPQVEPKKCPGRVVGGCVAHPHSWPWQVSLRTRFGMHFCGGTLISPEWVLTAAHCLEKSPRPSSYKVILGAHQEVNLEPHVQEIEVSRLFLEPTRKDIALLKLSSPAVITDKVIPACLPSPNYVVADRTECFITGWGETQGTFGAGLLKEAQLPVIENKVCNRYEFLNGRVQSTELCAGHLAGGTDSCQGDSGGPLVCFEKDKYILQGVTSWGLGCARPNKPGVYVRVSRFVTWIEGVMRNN
human plasminogen (HPG) (human), sequence (P00747 97-810): as above

Row | Molecule | % Plasminogen activation [3] | further results
1 | PEGylated SK C-383 Cys (SEQ ID NO 492), Cys at C + 1 position of SK 1-383, G3 (from UniProt P00779 27-409) | – | % Plasminogen activation [1]: 92%
2 | B1 | 100% | % Plasminogen Activation* (pre-complexed with equimolar plasmin) [2]: 100%; % Plasminogen activation [2]: 100%; Lag [2]: 1 min
3 | B2 | 100% | –
4 | B3 | 22% | –
5 | B4 | 72% | –
6 | B5 | 76% | –
7 | B6 | 98% | –
8 | B7 | 98% | –
9 | B8 | 95% | –
10 | B9 | 74% | –
11 | B10 | 100% | –
12 | B11 | 92% | –
13 | B12 | 96% | –
14 | B13 | – | % Plasminogen Activation* (pre-complexed with equimolar plasmin) [2]: 92%; % Plasminogen activation [2]: < 5%; Lag [2]: 12 min
15 | B14 | 88% | –
16 | B15 | – | % Plasminogen Activation* (pre-complexed with equimolar plasmin) [2]: 88%; % Plasminogen activation [2]: < 5%; Lag [2]: 14 min
17 | B16 | 95% | –
